Test results published in US20250340857A1 (SEISMIC THERAPEUTIC, published 2025).

Key:
IgG1 = experiment: cell-based or functional assay
Human IgE antibody = Human IgE antibody (human); experiment: cell-based or functional assay

B1: FP19 (Fc fusion)
chain: DKTHTCPPCPAPEAAGAPSVFLFPPKPKDTLMISRTPEVTCVVVDVSHEDPEVKFNWYVDGVEVHNAKTKPREEQQNSTYRVVSVLTVLHQDWLNGKEYKCKVSNKALKAPIEKTISKAKGQPREPQVYTLPPSRDELTKNQVSLTCLVKGFYPSDIAVEWESNGQPENNYKTTPPVLDSDGSFFLYSKLTVDKSRWQQGNVFSCSVMHEALHNHYTQKSLSLSPGGGGSGGGGSGGGGSTALGRRKAEDRIKETLWADGVKIDEKDFEHIKSSHEDYFAVEYGKGSGYYDVNKKMDSEDSALCVGAVVTNMFHWWVDQNRENIEKFKKQDPENNGVMKFEGVKEATVDELNHFYRDNRDNYADQSRFFDLIKKHFGNKALNPEELFELYFNGFYYGSSHRYIEDNEPAQNNLFSKVLENNKLLNPERSYGIDGFSNNVINALKSHKVLGLVYTTPLRYRHIISMWGADIDQDGKVKAIYVTDSDDREITFNDNSKRRIGMIRYDVLVDDNGNIRFTGKGATHKEEGAIYAGLYSLSRGDEVWEDYFKKYPEVQENL
- EC50 CE-SDS IgG1 (IgG1): 7240 nM
- EC50 CE-SDS IgE (Human IgE antibody): 21.8 nM
- EC50 MSD IgE (Human IgE antibody): 1.2 nM

B2: FP16 (Fc fusion)
chain: DKTHTCPPCPAPEAAGAPSVFLFPPKPKDTLMISRTPEVTCVVVDVSHEDPEVKFNWYVDGVEVHNAKTKPREEQQNSTYRVVSVLTVLHQDWLNGKEYKCKVSNKALKAPIEKTISKAKGQPREPQVYTLPPSRDELTKNQVSLTCLVKGFYPSDIAVEWESNGQPENNYKTTPPVLDSDGSFFLYSKLTVDKSRWQQGNVFSCSVMHEALHNHYTQKSLSLSPGGGGSGGGGSGGGGSTALGRRKAEDRIKETLWADGVKIDEKDFEHIKSSHEDYFAVEYGKGSGYYDVNKKMDSEDTALCVGAVVTNMFHWWVDQNRENIEKFKKQDPENNGVMKFNGVKEATVDELNHFYKEYQSNKYADQSRFFDLIKKHFGNKALNPEELFELYFNGFYYGSSHRYIEDNKPAQNNLFSKVLENNKLLNPERSYGIDGFSNNVINALKSHKVLGLVHTTPLRYRHIISMWGADIDQDGKVKAIYVTDSDDREITFNDNSKRRIGMIRYDVLVDDNGNIRFTGKGATHKEEGAIYAGLYSLSRGDEVWEDYFKKYPEVQENL
- EC50 CE-SDS IgG1 (IgG1): 8720 nM
- EC50 CE-SDS IgE (Human IgE antibody): 47 nM
